Values quoted from earlier work as cited in PMC7663405.

Biological target: CD80 (Homo sapiens) (UniProt P33681)
Sequence of UniProt P33681 (P33681 35-242): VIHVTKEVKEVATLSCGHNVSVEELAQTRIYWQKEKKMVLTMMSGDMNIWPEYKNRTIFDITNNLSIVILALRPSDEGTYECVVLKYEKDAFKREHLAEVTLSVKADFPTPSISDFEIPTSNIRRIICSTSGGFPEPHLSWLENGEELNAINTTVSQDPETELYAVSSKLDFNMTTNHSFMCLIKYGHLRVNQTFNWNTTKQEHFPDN

In the case of PD-L1 (from UniProt Q9NZQ7), the Kd is listed as 1.9 µM.
